# Data from patent US7708999B2, “Remedies for arthritis” (Kyowa Hakko Kirin Co., Ltd., priority 2001, dated 2010).
# T1: FGF-8 (Homo sapiens, UniProt P55075)
# T1 construct: purchased R & D
# T1 sequence (P55075 23-215 isoform P55075-3 limits assumed): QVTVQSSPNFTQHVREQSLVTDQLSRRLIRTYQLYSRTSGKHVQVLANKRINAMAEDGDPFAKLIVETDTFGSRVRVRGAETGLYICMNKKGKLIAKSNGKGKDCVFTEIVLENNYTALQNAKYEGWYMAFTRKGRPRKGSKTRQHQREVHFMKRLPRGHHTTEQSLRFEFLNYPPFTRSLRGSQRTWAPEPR
# B1: KM1334: anti-FGF-8 neutralizing monoclonal antibody produced by hybridoma KM1334 (FERM BP-5451), mouse IgG1 subclass (antibody, V domains shown)
# VH: QVQLQQSGAEVARPGASVKLSCKASGYTFTDYYLNWVKQRSGQGLEWIGEIDPGSDSIYYNENLEGRATLTADKSSSTAYMQLNSLTSEDSAVYFCARYGYSRYDVRFVYWGQGTLVTVST
# VL: DVLMTQTPLSLPVSLGDQASISCRSSQSLVHSNGRTYLEWYLQKPGQSPKVLIYKVSNRISGVPDRFSGSGSGTDFTLKISRVEAEDLGVYFCFQGSHVPYTFGGGTKLEIK
# Tests used:
# FGF-8 [1] = target: T1, FGF-8; assay: Inhibition by antibody of FGF-8-promoted production of matrix metalloproteinase-3 from rabbit chondrocytes; format: cell-based; settings: FGF-8 100 ng/mL, 48 hours
# Protocol: Rabbit articular chondrocytes were isolated and cultured by the method described in Example 1. After the chondrocytes became confluent, the culture solution was replaced with 0.5 vol % FBS/DMEM, followed by the culturing for 24 hours. The culture solution was removed, and 1 mL of 0.5 vol % FBS/DMEM (non-stimulated group), 0.5 vol % FBS/DMEM comprising FGF-8 (100 ng/mL)(0 group) or 0.5 vol % FBS/DMEM comprising FGF-8 (100 ng/mL) and anti-FGF-8 neutralizing antibody KM1334 (1, 3 or 10 μg/mL) was added, followed by the culturing for 48 hours. After 48 hours, the culture medium was recovered, the matrix metalloproteinase-3 concentration in the culture medium was measured using rabbit matrix metalloproteinase-3 ELISA system (manufactured by Amersham Biosciences). Three experiments were performed for each condition, and the mean values and the standard error were calculated.
# FGF-8 [2] = target: T1, FGF-8; assay: Inhibition by antibody of FGF-8-promoted degradation of extracellular matrix of rabbit chondrocytes; format: cell-based; settings: FGF-8 100 ng/mL, 48 hours, 1, 3 or 10 μg/mL tested
# Protocol: Rabbit articular chondrocytes were isolated from both knees and shoulders of 3-week-old New Zealand white female rabbits and cultured according to the method of Tamura et al. (Tamura T. et al., Eur. J. Pharmacol., 419, 269-274, 2001). That is, the joints of both knees and the joints of both shoulders were isolated to collect the epiphyseal cartilages. […] The culture solution was removed, and the amount of glycosaminoglycan in extracellular matrix remaining on the plate was measured by the dimethymethylene blue (DMMB) method (Chandrasekhar S. et al., Anal. Biochem. 161 103-108, 1987). […] To 75 μL of this digested solution were added 25 μL of a guanidine hydrochloride buffer (2.88 mol/L guanidine hydrochloride, 50 mmol/L sodium acetate, pH 6.8) and 200 μL of a DMMB solution, and the absorbance was measured at 530/590 nm. The concentration of glycosaminoglycan of each sample was calculated from the absorbance of chondroitin sulfate (derived from whale cartilages, manufactured by Seikagaku Kogyo) used as a standard. Three experiments were performed for each condition and the mean values and the standard error were calculated.
molecule,measurement,setting,value
B1,antibody concentration at which the production of matrix metalloproteinase-3 from the chondrocytes with FGF-8 was significantly inhibited,FGF-8 [1],≥ 1 µg/mL
same,percent inhibition of matrix metalloproteinase-3 production,FGF-8 [1]; antibody 1 μg/mL,72%
same,percent inhibition of matrix metalloproteinase-3 production,FGF-8 [1]; antibody 3 μg/mL,74%
same,percent inhibition of matrix metalloproteinase-3 production,FGF-8 [1]; antibody 10 μg/mL,100%
same,antibody concentration at which the promotion of degradation of extracellular matrix of the cartilage with FGF-8 was significantly inhibited,FGF-8 [2],≥ 3 µg/mL
